According to publication PMC6557641:

Molecular target: Chicken skeletal muscle actin, assembled into filaments (F-actin) (chicken) (UniProt P68139)
Experiment: TIRF microscopy of labeled protein on actin filaments; four-color TIRFM; 1.5 μM Mg-ATP actin (15% Alexa 488-labeled), 50 nM Fim1 (Alexa 405-labeled), 2.5 μM Cdc8 (TMR-labeled), without or with 500 nM Ain1 (Cy5-labeled); fluorescence on two-filament bundles; room temperature

- fold of Cdc8 on F-actin bundles with Fim1 and Ain1 against with Fim1 alone: > 100 fold
Substance: acetylation mimic tropomyosin AlaSer-Cdc8, fluorescently labeled (TMR or Cy5) (natural protein)
